Experimental findings from publication PMC3857192 are described below.

The target of this assay is PAC-1. The assay is described as follows: flow cytometry on cells. As to conditions: read off a plot. Background: Flow cytometry measures light scatter and fluorescence of single cells or particles in a stream.
[1] abbreviates: no treatment (CON), parent: est. 0.
Where [2] appears, read: FITC-PAC-1 5 µg/ml, DTT + PT25-2, parent: est. 36.
Setting [3] is: FITC-PAC-1 5 µg/ml, DTT, parent: est. 13.
Where [4] appears, read: FITC-PAC-1 5 µg/ml, mAb PT25-2, parent: est. 26.

Turning to “normal integrin αIIbβ3 (from UniProt P08514;P05106) αIIb:F992A; αIIb:F993A”, the response turned out to be 37 NNFI (DTT + PT25-2, parent: est. 36); 28 NNFI (DTT, parent: est. 12); 34 NNFI (mAb PT25-2, parent: est. 26); 24 NNFI under setting [1].
“normal integrin αIIbβ3 (from UniProt P08514;P05106) αIIb:K321C; αIIb:F992A; αIIb:F993A; β3:E358C”: the response (DTT + PT25-2, parent: est. 36) worked out at 38 NNFI; the response (DTT, parent: est. 12) stood at 23 NNFI; the response (mAb PT25-2, parent: est. 26) was 5.5 NNFI; the response under setting [1] was 2.7 NNFI.
Take “normal integrin αIIbβ3 (from UniProt P08514;P05106) αIIb:K321C; αIIb:F992A; αIIb:F993A; β3:R360C”: the response amounted to 20 NNFI (DTT + PT25-2, parent: est. 36); 13 NNFI (DTT, parent: est. 12); 9.9 NNFI (mAb PT25-2, parent: est. 26); 5.5 NNFI under setting [1].
As for “normal integrin αIIbβ3 (from UniProt P08514;P05106) αIIb:K321C; β3:E358C”, the response is 38 NNFI under setting [2]; 19 NNFI under setting [3]; 6.2 NNFI under setting [4]; 0.7 NNFI (FITC-PAC-1 5 µg/ml, no treatment (CON), parent: est. 0).
Take “normal integrin αIIbβ3 (from UniProt P08514;P05106) αIIb:K321C; β3:R360C”: the response worked out at 28 NNFI under setting [2], 14 NNFI under setting [3] and 9.7 NNFI under setting [4].
